Laboratory results taken from the supplement of paper PMC7877785.
± gives the uncertainty stated by the source.

Test: self-splicing fitness, log relative to wild type (ln ratio); higher = more splicing; Tetrahymena group I intron in knt gene, E. coli kanamycin selection, DiMSum; sequences stand for … in CUCUCU…GGAGGGAAAAGUUAUCAGGCAUGCACCUGGUAGCUAGUCUUUAAACCAAUAGAUUGCAUCGGUUUAAAAGGCAAGACCGUCAAAUUGCGGGAAAGGGGUCAACAGCCGUUCAGUACCAAGUCUCAGGGGAAACUUUGAGAUGGCCUUGCAAAGGGUAUGGUAAUAAGCUGACGGACAUGGUCCUAACCACGCAGCCAAGUCCUAAGUCAACAGAUCUUCUGUUGAUAUGGAUGCAGUUCACAGACUAAAUGUCGGUCGGGGAAGAUGUAUUCUUCUCAUAAGAUAUAGUCGGACCUCUCCUUAAUGGGAGCUAGCGGAUGAAGUGAUGCAACACUGGAGCCGCUGGGAACUAAUUUGUAUGCGAAAGUAUAUUGAUUAGUUUUGGAGUACUCGUGGUCG
Summary of the method: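 Library with all eight P1ex-region intron nucleotides randomised, intron inside the knt kanamycin-resistance gene on pET-22b(+), in E. coli BL21(DE3). Cells grew overnight at 37°C or 30°C on LB agar with or without 25 μg/mL kanamycin (plus 100 μg/mL carbenicillin, 50 μM IPTG, 0.2% rhamnose), in six replicate transformations. Pooled colonies were amplicon-sequenced on Illumina HiSeq 2500. DiMSum fitness is the error-weighted combination of wild-type-normalised replicate fold changes, kanamycin versus none.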

Row | Sequence | self-splicing fitness (ln) (30 °C) | self-splicing fitness (ln) (37 °C)
1 | CAGUAGCAAUAUUACGCGUC | -4.24 ± 0.31 | -2.83 ± 0.24
2 | CAGUAGCAAUAUUACGGACC | -2.15 ± 0.36 | –
3 | CAGUAGCAAUAUUACGGCAA | -3.53 ± 0.39 | -1.86 ± 0.27
4 | CAGUAGCAAUAUUACGGGCA | -3.05 ± 0.27 | -2.35 ± 0.25
5 | CAGUAGCAAUAUUACGGGCC | -2.57 ± 0.31 | -2.19 ± 0.3
6 | CAGUAGCAAUAUUACGGUAU | -3.79 ± 0.27 | -3.02 ± 0.28
7 | CAGUAGCAAUAUUACGGUCU | -3.35 ± 0.15 | -1.89 ± 0.14
8 | CAGUAGCAAUAUUACGGUUG | -1.52 ± 0.065 | -0.838 ± 0.083
9 | CAGUAGCAAUAUUACGUAAC | – | -0.919 ± 0.33
10 | CAGUAGCAAUAUUACGUUAG | -1.32 ± 0.072 | 0.119 ± 0.096
11 | CAGUAGCAAUAUUACGUUCU | – | -1.41 ± 0.2
12 | CAUAAGCAAUAUUACGAACU | -2.47 ± 0.23 | -2.69 ± 0.29
13 | CAUAAGCAAUAUUACGCGUA | -1.76 ± 0.11 | -2.02 ± 0.16
14 | CAUAAGCAAUAUUACGGACC | -3.27 ± 0.31 | -3.87 ± 0.23
15 | CAUAAGCAAUAUUACGGGUU | -3.37 ± 0.21 | -3.73 ± 0.24
16 | CAUAAGCAAUAUUACGGUGG | -1.24 ± 0.075 | -0.683 ± 0.088
17 | CAUAAGCAAUAUUACGGUGU | -3.84 ± 0.15 | -2.38 ± 0.14
18 | CAUAAGCAAUAUUACGUGAU | -3.26 ± 0.16 | -2.41 ± 0.16
19 | CAUAAGCAAUAUUACGUUGC | -4.07 ± 0.3 | -3.3 ± 0.3
20 | CAUAAGCAAUAUUACGUUUU | -4.55 ± 0.22 | -2.54 ± 0.15
21 | CAUCAGCAAUAUUACGAAUU | -1.2 ± 0.11 | -1.55 ± 0.14
22 | CAUCAGCAAUAUUACGAGGG | -2.04 ± 0.13 | -0.928 ± 0.12
23 | CAUCAGCAAUAUUACGAUGU | -3.52 ± 0.15 | -2.58 ± 0.15
24 | CAUCAGCAAUAUUACGCACU | -1.99 ± 0.092 | -1.17 ± 0.098
25 | CAUCAGCAAUAUUACGCAUA | -1.59 ± 0.089 | -0.647 ± 0.1

Row | Sequence | self-splicing fitness (ln) (30 °C) | self-splicing fitness (ln) (37 °C)
26 | CAUCAGCAAUAUUACGCCCC | -1.56 ± 0.21 | –
27 | CAUCAGCAAUAUUACGCCUA | -1.55 ± 0.1 | -1.03 ± 0.1
28 | CAUCAGCAAUAUUACGCGAC | -4.17 ± 0.29 | -2.92 ± 0.22
29 | CAUCAGCAAUAUUACGCGUA | -0.586 ± 0.089 | -0.774 ± 0.083
30 | CAUCAGCAAUAUUACGCUAU | -2.87 ± 0.13 | -2.64 ± 0.2
31 | CAUCAGCAAUAUUACGCUCC | -2.75 ± 0.24 | -2.3 ± 0.28
32 | CAUCAGCAAUAUUACGGACA | -0.235 ± 0.21 | -1.16 ± 0.15
33 | CAUCAGCAAUAUUACGGAGG | -1.24 ± 0.12 | -0.916 ± 0.14
34 | CAUCAGCAAUAUUACGGCUC | -1.91 ± 0.1 | -1.1 ± 0.12
35 | CAUCAGCAAUAUUACGGCUG | -1.76 ± 0.11 | -0.0705 ± 0.16
36 | CAUCAGCAAUAUUACGGGAC | -3.95 ± 0.46 | -2.51 ± 0.22
37 | CAUCAGCAAUAUUACGGUCG | 0.0182 ± 0.075 | 0.236 ± 0.093
38 | CAUCAGCAAUAUUACGGUUC | -2.65 ± 0.14 | -0.935 ± 0.13
39 | CAUCAGCAAUAUUACGGUUU | -2.29 ± 0.079 | -0.832 ± 0.094
40 | CAUCAGCAAUAUUACGUACU | -2.68 ± 0.18 | -1.65 ± 0.22
41 | CAUCAGCAAUAUUACGUCAA | -3.09 ± 0.15 | -2.38 ± 0.15
42 | CAUCAGCAAUAUUACGUCCU | -3.78 ± 0.22 | -1.91 ± 0.22
43 | CAUCAGCAAUAUUACGUCUU | -3.53 ± 0.14 | -2.19 ± 0.12
44 | CAUGAGCAAUAUUACGAAAA | -3.45 ± 0.34 | -1.22 ± 0.2
45 | CAUGAGCAAUAUUACGAACA | – | -2 ± 0.32
46 | CAUGAGCAAUAUUACGAAUC | – | -2.57 ± 0.42
47 | CAUGAGCAAUAUUACGACGC | -3.01 ± 0.23 | -1.99 ± 0.3
48 | CAUGAGCAAUAUUACGAGUC | -4.56 ± 0.28 | -3.27 ± 0.22
49 | CAUGAGCAAUAUUACGCAAC | -1.07 ± 0.29 | -1.69 ± 0.43
50 | CAUGAGCAAUAUUACGCCAU | -3.43 ± 0.3 | –

Row | Sequence | self-splicing fitness (ln) (30 °C) | self-splicing fitness (ln) (37 °C)
51 | CAUGAGCAAUAUUACGCCCU | – | -1.18 ± 0.27
52 | CAUGAGCAAUAUUACGCCGC | -3.56 ± 0.2 | -2.71 ± 0.22
53 | CAUGAGCAAUAUUACGCCUU | -3.02 ± 0.26 | -1.86 ± 0.24
54 | CAUGAGCAAUAUUACGGAGG | -3 ± 0.14 | -2.16 ± 0.18
55 | CAUGAGCAAUAUUACGGAUA | -3.32 ± 0.22 | -1.68 ± 0.24
56 | CAUGAGCAAUAUUACGGAUC | – | -2.94 ± 0.33
57 | CAUGAGCAAUAUUACGGAUG | -3.02 ± 0.31 | -2.01 ± 0.26
58 | CAUGAGCAAUAUUACGGCAC | – | -1.42 ± 0.3
59 | CAUGAGCAAUAUUACGGCUG | -0.641 ± 0.073 | -0.532 ± 0.12
60 | CAUGAGCAAUAUUACGGGUU | -3.04 ± 0.1 | -3.05 ± 0.16
61 | CAUGAGCAAUAUUACGUAAU | -3.04 ± 0.29 | -2.73 ± 0.3
62 | CAUGAGCAAUAUUACGUCGG | -2.94 ± 0.18 | -1.57 ± 0.21
63 | CAUGAGCAAUAUUACGUGAG | -3.88 ± 0.37 | -2.55 ± 0.24
64 | CAUGAGCAAUAUUACGUGCA | -1.37 ± 0.15 | -1.97 ± 0.24
65 | CAUGAGCAAUAUUACGUUGU | -4.13 ± 0.29 | -3.57 ± 0.19
66 | CAUGAGCAAUAUUACGUUUG | -3.57 ± 0.16 | -2.89 ± 0.2
67 | CAUUAGCAAUAUUACGACCU | -1.77 ± 0.45 | -1.77 ± 0.47
68 | CAUUAGCAAUAUUACGACGG | -0.257 ± 0.094 | -0.0198 ± 0.13
69 | CAUUAGCAAUAUUACGAGGC | – | -1.85 ± 0.33
70 | CAUUAGCAAUAUUACGAUGA | -2.12 ± 0.2 | -1.09 ± 0.15
71 | CAUUAGCAAUAUUACGAUGU | -3.45 ± 0.25 | -3.38 ± 0.23
72 | CAUUAGCAAUAUUACGAUUG | -1.49 ± 0.077 | -0.759 ± 0.11
73 | CAUUAGCAAUAUUACGCCAC | -2.71 ± 0.44 | -2.41 ± 0.35
74 | CAUUAGCAAUAUUACGCCUC | -1.17 ± 0.21 | -1.83 ± 0.31
75 | CAUUAGCAAUAUUACGCGAU | -3.83 ± 0.32 | -1.52 ± 0.23

Row | Sequence | self-splicing fitness (ln) (30 °C) | self-splicing fitness (ln) (37 °C)
76 | CAUUAGCAAUAUUACGCGUC | -2.64 ± 0.29 | -2.01 ± 0.26
77 | CAUUAGCAAUAUUACGCUGG | -2.7 ± 0.13 | -1.67 ± 0.14
78 | CAUUAGCAAUAUUACGCUUA | -2.22 ± 0.13 | -2.16 ± 0.15
79 | CAUUAGCAAUAUUACGCUUC | -2.28 ± 0.34 | –
80 | CAUUAGCAAUAUUACGGACA | -2.45 ± 0.22 | -1.22 ± 0.18
81 | CAUUAGCAAUAUUACGGAUG | -3.67 ± 0.39 | -3.03 ± 0.25
82 | CAUUAGCAAUAUUACGGCAG | -0.186 ± 0.078 | -0.0776 ± 0.11
83 | CAUUAGCAAUAUUACGGCAU | -2.99 ± 0.21 | -1.66 ± 0.17
84 | CAUUAGCAAUAUUACGGGAC | -3.64 ± 0.27 | -2.31 ± 0.25
85 | CAUUAGCAAUAUUACGGUAG | -0.468 ± 0.062 | -0.027 ± 0.072
86 | CAUUAGCAAUAUUACGUACG | -0.341 ± 0.09 | 0.593 ± 0.12
87 | CAUUAGCAAUAUUACGUACU | -3.11 ± 0.18 | -1.8 ± 0.15
88 | CAUUAGCAAUAUUACGUUCG | 0.151 ± 0.084 | 0.359 ± 0.093
89 | CAUUAGCAAUAUUACGUUUA | -1.42 ± 0.15 | -1.48 ± 0.15
90 | CCAAAGCAAUAUUACGACAG | -0.638 ± 0.066 | -0.249 ± 0.089
91 | CCAAAGCAAUAUUACGAGCG | -0.496 ± 0.069 | -0.161 ± 0.1
92 | CCAAAGCAAUAUUACGCAAG | -1.83 ± 0.12 | -1.52 ± 0.14
93 | CCAAAGCAAUAUUACGCCCC | – | -0.985 ± 0.44
94 | CCAAAGCAAUAUUACGCCCG | -0.324 ± 0.15 | 0.862 ± 0.18
95 | CCAAAGCAAUAUUACGCCGU | -3.25 ± 0.29 | -3.3 ± 0.35
96 | CCAAAGCAAUAUUACGCUUC | -3.37 ± 0.18 | -2.48 ± 0.18
97 | CCAAAGCAAUAUUACGGAGU | -2.7 ± 0.13 | -2.35 ± 0.2
98 | CCAAAGCAAUAUUACGGCGU | -3.49 ± 0.12 | -2.62 ± 0.14
99 | CCAAAGCAAUAUUACGGGAC | -4.28 ± 0.3 | -3.32 ± 0.46
